Experimental data: a protein production outcome set (Wang et al. 2014)

Assay: label from the status in PepcDB records

Row | Sequence | protein production
1 | MPLRLDIKRKLTAMSDRVKSVDLHPTEPWMLASLYNGSVCVWNHETQTLVKTFEVCDLPVRAAKFVARKNWVVTGADDMQIRVFNYNTLERVHMFEAHSDYIRCIAVHPTQPFILTSSDDMLIKLWDWDKKWSCSQVFEGHTHYVMQIVINPKDNNQFASASLDRTIKVWQLGSSSPNFTLEGHEKGVNCIDYYSGGDKPYLISGADDRLVKIWDYQNKTCVQTPEGHAQNVSCATFHPELPIIITGSEDGTVRIWHSSTYRLESTLNYGMERVWCVASLRGSNNVALGYDEGSIIVKLGREEPAMSMDANGKIIWAKHSEVQQANLKAMGDTEIKDGERLPLAVKDMGSCEIYPQTIQHNPNGRFVVVCGDGEYIIYTAMALRNKSFGSAQEFAWAHDSSEYAIRESNSVVKIFKNFKEKKSFKPDFGAESIYGGFLLGVRSVNGLAFYDWENTELIRRIEIQPKHIFWSDSGELVCIATEESFFILKYLSEKVLAAQETHEGVTEDGIEDAFEVLGEIQEIVKTGLWVGDCFIYTSSVNRLNYYVGGEIVTIAHLDRTMYLLGYIPKDNRLYLGDKELNIVSYSLLVSVLEYQTAVMRRDFSMADKVLPTIPKEQRTRVAHFLEKQGFKQQALTVSTDPEHRFELALQLGELKIAYQLAVEAESEQKWKQLAELAISKCQFSLAQECLHHAQDYGGLLLLATASGNASMVNKLAEGAERDGKNNVAFMSYFLQGKLDACLELLIRTGRLPEAAFLARTYLPSQVSRVVKLWRENLSKVNQKAAESLADPTEYENLFPGLKEAFVVEEWVKETHADLWPAKQYPLVTPNEERNVMEEAKRFQPSRATAQQEPDGKPASSPVIMASQTTHKEEKSFQELEDDLDTMELEDIDTTDINLDEDILDD | failed
2 | MNILNNKNKRTSIFKALALCLFAAVSFTFVSCDDDMDIQQSYPFTVETMPVPNKVTKGQTVEIRCELKKTGDFANTLYTIRYFQFEGEGTLKMDNGITFLPNDRYLLENEKFRLYYTAQGDEAHNFIVVVEDNFGNSYELEFDFNNRNVKDDGVITVVPIGNFKPLTR | failed
3 | MSYSWKKILIKPESTVVDALRVIDNEALRIALVVNDEQQLLGVVTDGDIRRGLLNNLPLETPVVDIMSRSPITASVNTAKEQLVKLMESKSILAVPLMEENKVVGLETLHHLFEEKTYHNPVFIMAGGFGTRLRPLTDTCPKPMLKIGNKPILETVIRSFIKAGFVNFYISTHYMPEQIQNHFGDGSELGVKISYVHEDSPLGTGGALGLLPDDLPQDLPLIMMNGDVLTKVDFERLLDFHTENQADATMCVREYDYQIPYGVINGKGNKITSMVEKPIQRFFVNAGIYVVSPSVIQSVPKNHHIDMPTLLEQHMNERDNILMFPIHEYWLDIGRMDDFNRAQADIHTLGLDLEHHHHHH | failed
4 | MILMSNEIKNPKKRRKLVEYANGRSLEEINGTVKVPKNIGFWKALFMYSGPGALVAVGYMDPGNWSTSITGGQNFQYMLMSIILISSLIAMLLQYMAAKLGIVSQMDLAQAIRARTSKSLGIVLWILTELAIMATDIAEVIGAAIALYLLFHIPLAIAVFITVLDVLLLLLLTKIGFRKIEAIVVCLIMVILVVFVYQVALSNPNWGAVFSGLVPTTKAFETSPTIGGMTPLSGSLGIIGATVMPHNLYLHSAVSQTREIDHNDEEDVARTLRFSTWDSNIQLSFAFIVNSLLLVMGVAVFKSGAVQDPSFFGLFHALNDTSTLSNGILIGVAKTGVLSTLFAVALLASGQNSTITGTLTGQVIMEGFIHMRMPLWARRLITRLISVVPVLICVMITSGKGDLQEHEALNQLMNNSQVFLAFALPFSMIPLLMMTDSRVEMGDRFKNSWAVKILGWISVIFLTYLNMTGLPNSITAFFGANPSAGEVELAHIIAYMLVAVVLALLAWTVFELHKGNQRYELEMRSKAEAKEEA | failed
5 | MLAGATLAIGVIAPQVLPATAHADEQTGESTVNLRILETSDIHVNLMNYDYYQTKTDNKVGLVQTATLVNKAREEAKNSVLFDDGDALQGTPLGDYVANKINDPKKPVDPSYTHPLYRLMNLMKYDVISLGNHEFNYGLDYLNKVISKTEFPVINSNVYKDDKDNNEENDQNYFKPYHVFEKEVEDESGQKQKVKIGVMGFVPPQVMNWDKANLEGKVKAKDIVETAKKMVPKMKAEGADVIVALAHSGVDKSGYNVGMENASYYLTEVPGVDAVLMGHSHTEVKDVFNGVPVVMPGVFGSNLGIIDMQLKKVNGKWEVQKEQSKPQLRPIADSKGNPLVQSDQHLVNEIKDDHQATIDYVNT | failed
6 | MGSRDLISSLPDEILGKVLSLLPTKRAASTAVLSKRWNNLPALVDKLDINDAIGGPGGFPEFIDKTLALLTNSTTIKRTSLNNEFQYGESQVNTWIRSFLERGCLQLYLNAQSLYTIDTEFFTSNTLVELTITGGFSPDGLLPPGGVFFPKLKTLSLVLMTFVDSDMYELFISGCPLLEEFLLRNDEIEIPPVWNALVSSPSIKRLTIVHHFPNYREAHDGCWFRTPNLVYLDYSSYVPDWYEVDLGSLVEARLDLRSWERLRDEKAGGYGDCDSVYDDEEYPDDPILGDVTNLVTGLSNIKTLHLSPDSLEVSFPYLLLFQFEVHSSLQSLLIV | failed
7 | MYVLIGGAGLIGQQLARQVLDQGHTVAVIDQDPQVCKMVRDRLGAMAFEGSAVNTDILLEAGICRADAVAAVLRQDALNLALVTLACHYGVSRIISRISQQDFIEPMRLAGAHHIISTVDLVVSTMVNAIECPQVESMLHFEQGQIEVFKLTLDSQSPVIGRSVAAIAQDRNFPSSSLIIGYQSHPQADLVIPSGNTVLEANATVLLATKPGLVQSLVNFLMPSLFSPLEHHHHHH | failed
8 | MPLITTETGKKMHVLEDGRKLITVIPGDGIGPECVEATLKVLEAAKAPLAYEVREAGASVFRRGIASGVPQETIESIRKTRVVLKGPLETPVGYGEKSANVTLRKLFETYANVRPVREFPNVPTPYAGRGIDLVVVRENVEDLYAGIEHMQTPSVAQTLKLISWKGSEKIVRFAFELARAEGRKKVHCATKSNIMKLAEGTLKRAFEQVAQEYPDIEAVHIIVDNAAHQLVKRPEQFEVIVTTNMNGDILSDLTSGLIGGLGFAPSANIGNEVAIFEAVHGSAPKYAGKNVINPTAVLLSAVMMLRYLEEFATADLIENALLYTLEEGRVLTGDVVGYDRGAKTTEYTEAIIQNLGKTPRKTQVRGYKPFRLPQVDGAIAPIVPRSRRVVGVDVFVETNLLPEALGKALEDLAAGTPFRLKMISNRGTQVYPPTGGLTDLVDHYRCRFLYTGEGEAKDPEILDLVSRVASRFRWMHLEKLQEFDGEPGFTKAQGED | not failed
9 | MNGARKWFFPDGYIPNGKRGYLVSHESLCIMNTGDETAKIRITFLFEDSKPVVHEVEISPMKSLHLRLDKLGIPKCKPYSIMAESNVPVVMQLSRLDVGKNHYTLMTTIGYWEE | not failed
10 | MQMNNHIRLRKAEGKWVIRTDSAVLGETLNAIELTEGSRDPVIYFPREDVAMVMFDKSEKVTACPLKGEASYYSIVGASGTLKDAAWSYESPKEGLEAIAGYLAFAPDCTKVGQY | not failed
11 | MSRSTLQPARISRVLPDSIAAEIGFEPGDAIISINGQQPRDLIDYQFLCSDEFLELEVLDAAGRSHQIEIEKDTDEGLGLEFETALFDGLIQCNNRCPFCFIDQQPPGKRESLYYKDDDYRLSFLYGSYLTLTNLSEAEWRRIAQLRLSPLYVSVHATEPDLRRRLLKNERAGLIGEQLHWFRQQQLQIHAQVVVCPDLNDGAQLQRTLMDLAEFHRGDPATVASVAVVPVGLTRFRPTEDELRPVQPADAAATIALVEALQTQFQTELGSRFAWLADEWYLIAGQPLPSASWYEQYPQLENGVGSIRAFISEFERQAATLPSQIEPARRLTWVVGNVVGQAFQPLQARLNAVQGLKVDLVGLASRYWGQTLTVTGLLTGQDLIEVLSDRDLGDGLLLPSLILLHGYRCFLDDLTVAEVEKALHTPIFVAEGITGLLTECLRSPLAATVQDH | failed
12 | MLGYAAMNRTLRERDPPRRCNRDMQKKTWESEGIEYAATLAAQNFEDLREILLWNRDHGIDFYRCSSKLVPWNSQFDITALPNYERVQSLAAECGALVQDNDMRLTFHPSHWCKLASESDDTVARSVESVEHHGRWLDLMGVPRSPRYAINVHIGAHYGDKAATADRFCDVVSDLAPRARDRLTVENDDTESLWSVQELVTDVASQVDIPVTFDYHHHSFTDRGLTYREGFELARETWDGARPITHYSEPARLRPDSDASPQAHADHVAAVPTWL | failed
13 | MWWWSSSTKGRSNLERFLLGITPKPPSFSLPQEQGKEEIEYFRLGDLWDCYDEMSAYGFGTQVDLNNGETVMQYYVPYLSAIQIHTNKPALLSRNQNEVAESESSEGWSDSESEKLLSRSMSNDSSKTWDAVSEDSVFDPDGSPLLKDRLGNLDFKYIERDPPHKRIPLTDKINVLVEKYPGLMTLRSVDMSPASWMAVAWYPIYHIPTCRNEKDLTTGFLTYHTLSSSFQDNVVEGDQSNNNEETEFCEDSVINKRMPLPPFGVTTYKMQGDLWGKTGFDQDRLLYLQSAADSWLKQLNVDHHDYNFFLNSSF | failed
14 | MGSSHHHHHHENLYFQGTSVMITENQSVNAKGKYEKMNRLYDTNKLHQYYSGPSYELTNVSGQSQGYYDSNVLLFNQQNQKFQVFLLGKDENKYKEKTHGLDVFAVPELVDLDGRIFSVSGVTKKNVKSIFESLRTPNLLVKKIDDKDGFSIDEFFFIQKEEVSLKELDFKIRKLLIKKYKLYEGSADKGRIVINMKDENKYEIDLSDKLDFERMADVINSEQIKNIEVNLK | not failed
15 | MIQMSSNDSSEVIRQCLQVLESITSDSSVPRNIRRSVNEIMDILNNESEPLFLRAASSISILEDISNDPNLPLHTRTLIWNLSSQLETIPVDE | failed
16 | MKDFWTWERLSFHMVLAYNDDRSFLINTGMPLDLTLRNQEMKKFAGDRAIFRSEDSIEMLRKAGFTPDDIDYVALTPVQDYTIGRLNEFRKSKIFIFRDGWIKDIAAPAYAYFHNRDLFIPKNIFDFVYGEGWKNIIFYDGETELVPGIRAIPVGCHHRSSVAFAINAKDGTYVFTDASFKAENVRNRIPIGIAENIYECLSAYEKIEKIGKLLPAYDPAIDDLYIKLEHHHHHH | not failed
17 | SAAATGPSFWLGNETLKVPLALFALNRQRLCERLRKNPAVQAGSIVVLQGGEETQRYCTDTGVLFRQESFFHWAFGVTEPGCYGVIDVDTGKSTLFVPRLPASHATWMGKIHSKEHFKEKYAVDDVQYVDEIASVLTSQKPSVLLTLRGVNTDSGSVCREASFDGISKFEVNNTILHPEIVECRVFKTDMELEVLRYTNKISSEAHREVMKAVKVGMKEYELESLFEHYCYSRGGMRHSSYTCICGSGENSAVLHYGHAGAPNDRTIQNGDMCLFDMGGEYYCFASDITCSFPANGKFTADQKAVYEAVLRSSRAVMGAMKPGVWWPDMHRLADRIHLEELAHMGILSGSVDAMVQAHLGAVFMPHGLGHFLGIDVHDVGGYPEGVERIDEPGLRSLRTARHLQPGMVLTVEPGIYFIDHLLDEALADPARASFLNREVLQRFRGFGGVRIEEDVVVTDSGIELLTCVPRTVEEIEACMAGCDKAFTPFSGPK | failed
18 | FLEVNYYSRVLGMNRVMNVLLPEESDHNPNWTNDSLKDLPVLYLLHGMSGNHFDWQRKSDIERLLRQTKLAVIMPAADLAWYTNTDYGMNYFDAISQELPRKVASLFPQISTKRKKHFVAGMSMGGYGAFKLAFSSSYFSYAASLSGTLISSLNYPGFLDMEKQAYWKGIFGDLDKFSGSKNDIFELAKRQSNTGIELPKLYAWVGQQDFFYGANEKAIPRLRKMGYDVSYETNPGDHEWYYWSKYIENILQWLPINYQAEKRLS | failed
19 | MAAKPGIPKGTRDFSPVEMAKRNYIFNTIRDVFHLFGYQQIETPSMENLSTLMGKYGDEGDKLLFKIQNSGDYFNGITDEELLSRNAVKLASKFCEKGLRYDLTVPFARYVVMHRDEISFPFKRYQIQPVWRADRPQKGRYREFYQCDADVVGSNSLLNEVELVQMIDRVFGKFGVRVSIKINNRKILTGIAEIIGEADKIVDITVAIDKLDKIGLENVNAELASKGIPQEAIDKLQPIILLSGSNEEKLETLKTVLATSEAGLKGVEESEFILKTVSALGVKSEVELDLTLARGLNYYTGAIFEVKALDVQIGSISGGGRYDNLTGVFGMDGMSGVGISFGADRIFDVLNQLDLYPKE | not failed
